Results as given in publication PMC6802964.

What was measured:
Test in all cases: other fluorescence titration; change of the CyPet-YPet FRET signal of the IQ-FRET protein (1 µM by the methods, 0.5 µM by the legend) with varying concentrations of Cam1 or Cam2; 140 mM KCl, 20 mM MOPS pH 7.0, with or without 2 mM MgCl2, 2 mM EGTA (absence of calcium)
[1] = target: T1, CyPet–Myo1^IQ1–YPet FRET reporter protein (S. pombe)
T1 sequence (Q9Y7Z8 whole entry, looked up): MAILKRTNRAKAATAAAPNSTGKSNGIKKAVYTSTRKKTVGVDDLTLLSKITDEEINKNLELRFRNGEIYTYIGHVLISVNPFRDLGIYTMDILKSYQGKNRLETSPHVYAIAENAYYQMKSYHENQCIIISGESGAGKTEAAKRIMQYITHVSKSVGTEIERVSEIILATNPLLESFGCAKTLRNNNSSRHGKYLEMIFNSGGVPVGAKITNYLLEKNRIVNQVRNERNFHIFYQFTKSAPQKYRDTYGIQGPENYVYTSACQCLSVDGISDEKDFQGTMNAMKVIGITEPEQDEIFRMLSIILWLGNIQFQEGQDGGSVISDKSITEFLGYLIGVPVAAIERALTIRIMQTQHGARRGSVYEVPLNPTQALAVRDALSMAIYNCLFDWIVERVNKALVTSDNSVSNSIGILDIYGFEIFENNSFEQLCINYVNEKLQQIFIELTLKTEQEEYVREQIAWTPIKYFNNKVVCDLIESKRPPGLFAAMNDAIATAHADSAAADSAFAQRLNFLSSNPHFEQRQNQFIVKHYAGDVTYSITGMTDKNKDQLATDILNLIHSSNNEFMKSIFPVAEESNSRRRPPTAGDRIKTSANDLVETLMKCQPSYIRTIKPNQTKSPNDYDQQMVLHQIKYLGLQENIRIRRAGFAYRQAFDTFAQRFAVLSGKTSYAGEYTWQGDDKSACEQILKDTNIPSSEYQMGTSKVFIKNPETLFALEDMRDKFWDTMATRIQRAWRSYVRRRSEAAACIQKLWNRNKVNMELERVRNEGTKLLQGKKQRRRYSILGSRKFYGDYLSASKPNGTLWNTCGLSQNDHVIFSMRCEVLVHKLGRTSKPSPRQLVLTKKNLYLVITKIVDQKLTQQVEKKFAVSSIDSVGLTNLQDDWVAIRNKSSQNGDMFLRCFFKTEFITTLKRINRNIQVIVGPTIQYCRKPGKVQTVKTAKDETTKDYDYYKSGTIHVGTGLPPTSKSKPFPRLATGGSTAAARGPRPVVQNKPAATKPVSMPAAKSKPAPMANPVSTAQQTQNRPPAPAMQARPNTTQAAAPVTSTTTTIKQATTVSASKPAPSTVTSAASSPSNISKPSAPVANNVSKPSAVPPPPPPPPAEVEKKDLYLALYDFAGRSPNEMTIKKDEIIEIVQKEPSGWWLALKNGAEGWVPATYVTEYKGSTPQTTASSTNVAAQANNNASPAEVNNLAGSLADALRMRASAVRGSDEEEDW

[2] = target: T2, CyPet–Myo1^IQ12–YPet FRET reporter protein (S. pombe)
T2 sequence (Q9Y7Z8 whole entry, looked up): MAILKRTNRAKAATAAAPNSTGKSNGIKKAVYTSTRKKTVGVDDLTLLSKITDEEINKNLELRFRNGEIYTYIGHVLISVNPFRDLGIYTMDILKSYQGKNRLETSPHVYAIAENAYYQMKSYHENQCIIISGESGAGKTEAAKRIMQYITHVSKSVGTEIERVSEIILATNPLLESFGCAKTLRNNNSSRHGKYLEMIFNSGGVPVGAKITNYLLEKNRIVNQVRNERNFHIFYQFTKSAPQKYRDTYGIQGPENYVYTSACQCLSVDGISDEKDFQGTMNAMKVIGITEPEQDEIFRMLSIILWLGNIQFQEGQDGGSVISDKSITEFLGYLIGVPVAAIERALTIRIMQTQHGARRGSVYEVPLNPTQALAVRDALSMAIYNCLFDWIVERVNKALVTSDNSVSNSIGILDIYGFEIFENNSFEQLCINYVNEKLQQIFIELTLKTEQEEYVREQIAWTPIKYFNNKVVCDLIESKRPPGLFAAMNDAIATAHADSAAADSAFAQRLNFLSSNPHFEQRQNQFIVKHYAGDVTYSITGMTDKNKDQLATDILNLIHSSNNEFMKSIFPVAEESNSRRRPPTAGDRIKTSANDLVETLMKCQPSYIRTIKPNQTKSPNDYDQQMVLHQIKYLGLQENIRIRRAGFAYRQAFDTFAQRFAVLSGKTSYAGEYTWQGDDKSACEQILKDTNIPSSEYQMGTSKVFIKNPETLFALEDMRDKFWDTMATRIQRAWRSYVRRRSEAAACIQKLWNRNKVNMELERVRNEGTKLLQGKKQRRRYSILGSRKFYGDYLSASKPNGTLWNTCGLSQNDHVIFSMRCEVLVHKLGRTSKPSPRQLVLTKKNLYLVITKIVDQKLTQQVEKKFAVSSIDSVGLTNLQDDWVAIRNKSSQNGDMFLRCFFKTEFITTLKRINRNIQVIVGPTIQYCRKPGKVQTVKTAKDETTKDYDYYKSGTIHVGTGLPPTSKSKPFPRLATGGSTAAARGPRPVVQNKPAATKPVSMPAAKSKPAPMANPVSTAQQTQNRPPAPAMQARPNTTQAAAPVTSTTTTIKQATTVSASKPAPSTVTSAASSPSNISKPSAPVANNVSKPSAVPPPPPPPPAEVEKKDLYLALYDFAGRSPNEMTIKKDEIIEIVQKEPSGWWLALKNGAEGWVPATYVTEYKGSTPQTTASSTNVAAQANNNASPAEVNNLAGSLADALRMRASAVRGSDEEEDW

[3] = target: CyPet–Myo1^IQ12S742D–YPet FRET reporter protein (S742D phosphomimetic) (S. pombe)

B1: Cam2 (calcium-insensitive calmodulin-like protein) (natural protein)
chain: MPASKEQTDEMKEAFVLYDIDKDGLIPTSHVGSVLRSLGINVTDAELAKLSNELGDAIDEKKFMSFVSNKLRETESEEEYIKAFRVFDKDNSGYIETAKFADYMKTLGEKLSDNEVQLMVQEADPTNSGSFDYYDFVQRIMAK
In the case of B1, the Kd [1] is reported as 400 nM, the KD of the binding event that gives 70% of the signal change [2] is reported as 1100 nM and the stoichiometry N [2] is reported as 2. The drop in interaction against wild type Myo1^IQ12–FRET [3] was 50%.
